Patent US20180185450A1 (Sanofi, published 2018)
Like-named read-outs stand apart in the source and are kept apart here. Numbered stars: 1 amine (or outer) side, 2 acyl side, 3 side chain; on linkers, the order of the positions; unused ones are H or OH. Square brackets hold non-standard residues; d marks the D form. Side chains are listed from the residue outwards. Ends that are not written are not given here. γGlu = O=C(O)[C@H](CCC(=O)[*:2])N[*:1]; X70 = not defined here; x53 = not defined here; Aib = CC(C)(N)C(=O)O

Legend:
Test in all cases: cell-based or functional assay
[1] = biological target: T1, human GLP-1 receptor (human, UniProt P43220 24-463)
[2] = biological target: T2, human glucagon receptor (human, UniProt P47871 26-477)
[3] = biological target: T1, human GLP-1 receptor; remark: listed apart in the source
[4] = biological target: T2, human glucagon receptor; remark: listed apart in the source

T2 sequence (P47871 26-477): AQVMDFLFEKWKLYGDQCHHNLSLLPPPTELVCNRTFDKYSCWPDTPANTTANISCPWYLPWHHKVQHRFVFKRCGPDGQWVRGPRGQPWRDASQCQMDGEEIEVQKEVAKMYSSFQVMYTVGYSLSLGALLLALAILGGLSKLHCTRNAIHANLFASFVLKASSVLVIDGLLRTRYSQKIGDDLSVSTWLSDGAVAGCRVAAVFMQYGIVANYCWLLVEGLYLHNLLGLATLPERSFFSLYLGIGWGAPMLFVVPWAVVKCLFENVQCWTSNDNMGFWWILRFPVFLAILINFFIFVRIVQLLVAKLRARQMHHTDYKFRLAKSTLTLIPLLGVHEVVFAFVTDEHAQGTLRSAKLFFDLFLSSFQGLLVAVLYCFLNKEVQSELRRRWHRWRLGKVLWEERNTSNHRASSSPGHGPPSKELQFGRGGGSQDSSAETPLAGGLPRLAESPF

Binder | EC50 hGLP-1R (cAMP) [1] | EC50 hGlucagon-R (cAMP) [2] | EC50 hGLP-1R (cAMP) [3] | EC50 hGlucagon-R (cAMP) [4]
H[Aib]QGTFTSDLSKQK([γGlu-X70])DEEAARLFIEWLKAGGPSSGAPPPS-NH2 (reading uncertain) [SEQ ID NO: 216] | 4.7 pM | 19.5 pM | 4.7 pM | 19.5 pM
H[Aib]QGTFTSDLSKQK([γGlu-X70])EEEAARLFIEWLKAGGPSSGAPPPS-NH2 (reading uncertain) [SEQ ID NO: 215] | 5.3 pM | 42.6 pM | 5.3 pM | 42.6 pM
HXQGTFTSDLSKQKDSRRAQDFIEWLKRGGPSSGAPPPS (dSer at 2; K(γE-x53) at 14; C-terminal NH2) [SEQ ID NO: 125] | 31.4 pM | 6.9 pM | 31.4 pM | 6.9 pM
HXQGTFTSDLSKQKDSKAAQDFIEWLKAGGPSSGAPPPS (dSer at 2; K(γE-x53) at 14; C-terminal NH2) [SEQ ID NO: 30] | 3.2 pM | 7 pM | 3.2 pM | 7 pM
HXQGTFTSDLSKQKESKAAQDFIEWLKAGGPSSGAPPPS (dSer at 2; K(γE-x53) at 14; C-terminal NH2) [SEQ ID NO: 24] | 1.9 pM | 9.4 pM | 2 pM | 9.8 pM
HXQGTFTSDLSKQKESRRAQDFIEWLKAGGPSSGAPPPS (dSer at 2; K(γE-x53) at 14; C-terminal NH2) [SEQ ID NO: 4] | 5 pM | 4 pM | 5 pM | 4 pM
H[Aib]QGTFTSDLSKQK([γGlu-x53])DSRRAQDFIEWLKNGGPSSGAPPPS-NH2 (reading uncertain) [SEQ ID NO: 115] | 2.4 pM | 1.9 pM | 2.4 pM | 1.9 pM
